Data published in the supplement of paper PMC7125110.
± gives the standard error. Variants at the floor of the assay were thinned out.

B1: glmS ribozyme (parent)
chain: AUAAAAGCGCCAGAACUACAGAAAUGUAGUUGACGAGGAGGAGGUUUAUCGAAUUUUCGGCGGAUGCCUCCAAA

How the values were obtained:
Settings in all cases: with glucosamine-6-phosphate
glucosamine-6-phosphate [1] = variants of: B1; experiment: self-cleavage kobs at 640 uM GlcN6P; higher = faster cleavage; RNA array
Method in brief: (§1)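 Sequenced MiSeq chips were the platform: E. coli RNA polymerase transcribed barcoded ribozyme variants on them in situ, and a hybridised Cy3 probe tracked these at 37 °C. After glucosamine-6-phosphate (40 μM to 10 mM) in HEPES/KCl/Mg(OAc)2 buffer was flowed in, tiles were imaged over ~14 h. Signals normalised to baseline and to non-cleaving reference variants were reduced to per-tile medians and fit to one- or two-exponential decays to obtain kobs. kcat and KM were derived through weighted Michaelis–Menten fits across concentrations.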

glucosamine-6-phosphate [2] = variants of: B1; experiment: self-cleavage kobs at 2500 uM GlcN6P; higher = faster cleavage; RNA array
Method in brief: as §1

glucosamine-6-phosphate [3] = variants of: B1; experiment: self-cleavage kobs at 10000 uM GlcN6P; higher = faster cleavage; RNA array
Method in brief: as §1

Row | Variant | self-cleavage kobs at 640 uM GlcN6P (glucosamine-6-phosphate [1]) [s⁻¹] | self-cleavage kobs at 2500 uM GlcN6P (glucosamine-6-phosphate [2]) [s⁻¹] | self-cleavage kobs at 10000 uM GlcN6P (glucosamine-6-phosphate [3]) [s⁻¹]
1 | AUAAAAGCGCCAGAACUACAGAAAUGUAGUUGACGAGGAUGAGGUUUAUCGAAUUUUCGGCGGAGACCUCCAAA [G40U U65G G66A] | 9.33e-05 ± 1.9e-05 | 0.000269 ± 8.2e-05 | –
2 | AUAAAAGCGCCAGAACUACAGAAAUGUAGUUGACGAGGAGGAGCUUUAUCGAAUUCUCUGCGGAUGCCUCCAAA [G44C U56C G59U] | < 1e-05 | < 1e-05 | –
3 | AUAAAAGCGCCAUAACUACAGAAAUGUAGUUGACGGGGAGGAGGUUCAUCGAAUUUUCGGCGGAUGCCUCCAAA [G13U A36G U47C] | < 1e-05 | – | –
4 | AUAAAAGCGCCUGCACUACAGAAAUGUACUUGACGAGGAGGAGGUUUAUCGAAUUUUCGGCGGAUGCCUCCAAA [A12U A14C G29C] | 4.97e-05 ± 2e-05 | 0.000232 ± 7.7e-05 | –
5 | AUAAAAGCGCCAGCACUACAGAAAUGUAGUUGACGAGUAGGAGAUUUAUCGAAUUUUCGGCGUAUGUCUCCAAA [A14C G38U G44A G63U C67U] | < 1e-05 | – | –
6 | AUAAAAGCGCCAGAACUACAGAAAUGUAGUUGACGAGGAGGAGGUUUAUUGAAUUUUCUGCGGAUGCCAGCAAA [C50U G59U U69A C70G] | 0.000556 ± 0.00018 | 7.32e-05 ± 2.9e-05 | –
7 | AUAAAAGCGCCAGAACUACAGAAAUGUAGUUGACGACGAGGAGGUGUAUUGAAUUUUCGGCGGAUGCCUCCAAA [G37C U46G C50U] | < 1e-05 | – | < 1e-05
8 | AUAAAAGCGCCAGAACUACAGAAAUGUAGUUGACGAGGAGGAGGGUUAUCGCAUCUUCGGCGGAUGCCUGCAAA [U45G A52C U55C C70G] | < 1e-05 | < 1e-05 | –
9 | AUAAAAGCGCCAGAACUACAGAAAUGUAGUUCACGAGGAGGAGGUUUAUCGAAUUUUCGGCGUAUGCCGCCAAA [G32C G63U U69G] | 0.00126 ± 0.00029 | – | –
10 | AUAAAAGCGCCAGAACUACAGAAAUGUAGUUGACUAGAAGGAGGUUUAUCUAAUUUUCGGCGGAUGCCUCCAAA [G35U G38A G51U] | < 1e-05 | – | –
11 | AUAAAUGCGCCAGAACUACAGAAAUGUAGUUGACUAGGAGGAUGUUUAUCGAAUUUUCGGCGGAUGCCUCCAAA [A6U G35U G43U] | < 1e-05 | < 1e-05 | –
12 | AUAAAAGCGCCAGAACUACAGAAAUGUAGUUGACGAGGGGGAGGUUUAUCCAAUUUUCGGCGGACGCCAACAAA [A39G G51C U65C U69A C70A] | < 1e-05 | < 1e-05 | –
13 | AUAAAAGCGCCAGAACUACAGAAAUGUAGUUGACGGGGAGGAGGUUUAACGAAUUUUCGGCGUAUGCCUCCAAA [A36G U49A G63U] | < 1e-05 | – | –
14 | AUAAAAGCGCCUGAAUUACAGAAAUGUAGUUGACGAGGAGGUGGUUUAUCGAAUUUUCGGCGGAUGCCUCCAAA [A12U C16U A42U] | 0.000196 ± 4.1e-05 | – | –
15 | AUAAAAGCGCCAGAAGUACAGAAAUGUAGUUGACGAGGAGGAGGUUUAUCGAAAUUUCGGCGGAGGCCUCCAAA [C16G U54A U65G] | 0.000305 ± 0.00011 | 0.000707 ± 0.00023 | –
16 | AUAAAGGUGCCAGAACUACAGAAAUGUAGUGGACGAGGAGGAGGUUUAUCGAAUUUUCGGCGGAUGCCUCGAAA [A6G C8U U31G C71G] | < 1e-05 | – | –
17 | AUAAAGGCGCCAGAACUACAGAAAUGUAGUUGACGAGGAGGAGGUUUAUCGAAUUUUCGGCGUCUGUCGCCAAA [A6G G63U A64C C67U U69G] | < 1e-05 | < 1e-05 | –
18 | AUAAAAGGGCCAUAACUACAGAAAUGUAGUUGUCGAGAAGGAGGUUUAUCGAAUUUUCGGCGGAUGCCUCCAAA [C8G G13U A33U G38A] | < 1e-05 | – | –
19 | AUAAAAGCGCCAGAAUUACAGAAAUGUAGUAGCCGAGGAGGAGGUUUAUCGAAUUGUCGGCGGAUGCGUCCAAA [C16U U31A A33C U56G C68G] | < 1e-05 | – | –
20 | AUAAAAGCGCCAGCACUACAGAAAUGUAGUGAACGAGGAGGAGGUUUAUCGAAUUUUCGGCGGAUGCCUGCAAA [A14C U31G G32A C70G] | 6.55e-05 ± 1.4e-05 | 8.05e-05 ± 2e-05 | –
21 | AUAAAAGCGCCAGAACUACAGAAAUGUAGGUGACGAGGAGGAGGUUUAUCGCAUUUUCGGCGGAUGCCUCGAAA [U30G A52C C71G] | < 1e-05 | – | –
22 | AUAAAAGCGCCAGAACUACAGAAAUGUAGUUGAAGAGGAGGAUGUUUAUCGAAUGUGCGGAGGAUGCCUCCAAA [C34A G43U U55G U57G C61A] | < 1e-05 | – | –
23 | AUAAAAGCGCCAGAAUUACAGAAAUGUAGUUGACGAGGAGGAGGUUUAUCGAAUUUUCGGCGGAUGGCUUCAAA [C16U C67G C70U] | 5.74e-05 ± 2e-05 | 7.27e-05 ± 2e-05 | –
24 | AUAAAAGCGCCAGAACUACAGAAAUGUAGUUGACGAGGAGGAGGUUUAUCGAAUUUACGGCAGAUGCCUCCAAA [U57A G62A] | < 1e-05 | – | –
